According to US9567641B2, “Combination therapy for the treatment of cancer using an anti-C-met antibody” (SAMSUNG ELECTRONICS CO., LTD., priority 2013, dated 2017):

Experiments:
Type in all cases: cell-based
[1] = test system: HT29 colorectal cancer cell line; assay: Cell viability, CellTiter Glo, combination with L3-1Y/IgG2 antibody; details: L3-1Y/IgG2 antibody alone (negative control siRNA), 0-2 ug/ml, 72 h
Method: The efficacy of the combination administration of FGFR3 siRNA and L3-1Y/IgG2 antibody was examined in a colorectal cancer cell line on which the anti-c-Met antibody has no effects. For this, HT29 (ATCC, HTB-38) cells were used. As a control group, All Negative control siRNA (Qiagen, cat. no. 1027281) was used, and as a target siRNA, a mixture of two kinds of siRNAs (see Table 7) that had effects during the screening was used. Transfection was carried out by the same procedures as Example 3.1 and after 24 hours, the cultured cells were treated with L3-1Y/IgG2 antibody at 0 ug/ml, 0.016 ug/ml, 0.08 ug/ml, 0.4 ug/ml, and 2 ug/ml, respectively.
72 hours later after the treatment, 100 uL of CellTiter Glo solution (Promega, G7572) was added to each well, which was allowed to stay at a room temperature for 30 min. The number of cells was counted via luminescence signals, which were recorded using Envision 2104 Multi-label Reader (Perkin Elmer).

[2] = test system: HCC1806 breast cancer cells; assay: as above
Method: (§1) The efficacy of the combination administration of ITGB3 siRNA and L3-1Y/IgG2 antibody was examined in a breast cancer cell line on which the anti-c-Met antibody alone has no effects. For this, HCC1806 (ATCC, CRL-2335) and HCC1954 (ATCC, CRL-2338) cells were used.
(§2) As a control group, All Negative control siRNA (Qiagen, cat. no. 1027281) was used, and as a target siRNA, a mixture of two kinds of siRNAs (see Table 7) that had effects during the screening was used. Transfection was carried out by the same procedures as Example 3.1 and after 24 hours, the cultured cells were treated with L3-1Y/IgG2 antibody at 0 ug/ml, 0.016 ug/ml, 0.08 ug/ml, 0.4 ug/ml, or 2 ug/ml. 72 hours later after the treatment, 100 uL of CellTiter Glo solution (Promega, G7572) was added to each well, which was allowed to stay at a room temperature for 30 min. The number of cells was counted via luminescence signals, which were recorded using Envision 2104 Multi-label Reader (Perkin Elmer).
To verify the effect of the combination therapy using ITGB3 inhibitor and anti-c-Met antibody in breast cancer cells on which the anti-c-Met antibody has no effects, HCC1806 (ATCC, CRL-2335) cells were used. The HCC 1806 cells are a cell line known to have high amounts of c-Met.
5000 cells of HCC1806 cells were seeded onto a 96-well plate, and 24 hours after, the plate was treated with L3-1Y/IgG2 antibody and an ITGB3 inhibitor, cilengitide (Merck KGaA, EMD 121974). 72 hours later after the treatment, a change in the number of cells was measured using CellTiter Glo assay. Cilengitide was treated at a fixed concentration of 10 uM, and the L3-1Y/IgG2 antibody was treated by ⅕ dilution each time starting from 2 ug/ml. For comparison, the same test was conducted using L3-1Y/IgG2 antibody alone.
The efficacy of combination administration was examined in a breast cancer cell line on which the anti-c-Met antibody has no effects. For this, HCC1806 (ATCC, CRL-2335) cells were used.
5000 HCC1806 cells were seeded onto a 96-well plate and 24 hours after, the plate was treated with L3-1Y/IgG2 antibody and an AKT inhibitor, MK-2206 (Merck & Co Inc) and 72 hours later after the antibody treatment, a change in the number of cells was measured using CellTiter Glo assay. MK-2206 was treated at a fixed concentration of 10 uM, and the L3-1Y/IgG2 antibody was treated by ⅕ dilution each time starting from 2 ug/ml. For comparison, the same test was conducted using L3-1Y/IgG2 antibody alone.

[3] = test system: HCC1954 breast cancer cells; assay: as above; details: L3-1Y/IgG2 antibody alone (negative control siRNA)
Method: as §1, §2

[4] = test system: MKN45 gastric cancer cell line; assay: Synthetic lethal screening: siRNA plus anti-c-Met antibody, sensitization index (SI) by CellTiter Blue; details: MKN45 cells, 5 days
Method: To search genes capable of increasing efficacy when suppressed together with an anti-c-Met antibody, synthetic lethal screening was conducted using MKN45 gastric cancer cell line (JCRB, JCRB0254). The synthetic lethal screening was conducted using a total of 1310 genes related to c-Met including 638 genes of EGFR library (Science Signaling, 3, ra67).
First, 0.3 ul of RNAiMax (Life Technologies) and a mixture of two different kinds of 20 nM siRNAs (Qiagen) were added to a 96-well plate, which was incubated at a room temperature for 15 min, wherein RNAiMax and siRNAs were diluted in Opti-MEM (Life Technologies) and a total mixture volume was adjusted to reach 22 ul or so. 78 ul of MKN45 cells diluted in a 5% FBS-containing RPMI1640 medium (GIBCO) were seeded onto each well of the 96-well plate so that each well contained 5000 cells. […]
After 5 days, 20 ul of a diluting solution of CellTiter Blue (Promega, G8081) and HBSS at 1:1 was added to each well, which was incubated at 37° C. for 4 hours. Then, the number of cells was counted via fluorescence signals (560/590 nm), which were measured using Envision 2104 Multi-label Reader (Perkin Elmer).
Since an increase degree in the efficacy of an anti-c-Met antibody to be caused by the expression suppression of each gene was measured as a reduction in cell viability, SI (sensitization index) was calculated. […]

B1: L3-1Y/IgG2: anti-c-Met antibody: huAbF46-H4-A1 heavy chain variable region, human IgG2 hinge and constant region, kappa light chain with H36Y (antibody)
heavy: EVQLVESGGGLVQPGGSLRLSCAASGFTFTDYYMSWVRQAPGKGLEWLGFIRNKANGYTTEYSASVKGRFTISRDNSKNTLYLQMNSLRAEDTAVYYCARDNWFAYWGQGTLVTVSSASTKGPSVFPLAPCSRSTSESTAALGCLVKDYFPEPVTVSWNSGALTSGVHTFPAVLQSSGLYSLSSVVTVPSSNFGTQTYTCNVDHKPSNTKVDKTVERKCCVECPPCPAPPVAGPSVFLFPPKPKDTLMISRTPEVTCVVVDVSHEDPEVQFNWYVDGVEVHNAKTKPREEQFNSTFRVVSVLTVVHQDWLNGKEYKCKVSNKGLPAPIEKTISKTKGQPREPQVYTLPPSREEMTKNQVSLTCLVKGFYPSDIAVEWESNGQPENNYKTTPPMLDSDGSFFLYSKLTVDKSRWQQGNVFSCSVMHEALHNHYTQKSLSLSPGK
light: DIQMTQSPSSLSASVGDRVTITCKSSQSLLASGNQNNYLAWYQQKPGKAPKMLIIWASTRVSGVPSRFSGSGSGTDFTLTISSLQPEDFATYYCQQSYSRPYTFGQGTKVEIKRTVAAPSVFIFPPSDEQLKSGTASVVCLLNNFYPREAKVQWKVDNALQSGNSQESVTEQDSKDSTYSLSSTLTLSKADYEKHKVYACEVTHQGLSSPVTKSFNRGEC
Q: With B1 as the molecule, how does the “cancer cell growth inhibitory efficacy (cell viability)” value (from here on “cancer cell growth inhibitory efficacy”) [1] read?
A: did not occur

Q: What about the “growth inhibitory effect (cell viability)” value ([2]; L3-1Y/IgG2 antibody alone (1/5 dilutions from 2 ug/ml), 72 h) of the same molecule?
A: did not occur

Q: And the “cancer cell growth inhibitory efficacy” value ([2]; L3-1Y/IgG2 antibody alone (negative control siRNA))?
A: did not occur

Q: And the “cancer cell growth inhibitory efficacy” value [3]?
A: did not occur

Q: What about the “final concentration that is approximately IC25~IC35” value [4] of the same molecule?
A: ~0.0625 μl/ml
